This passage reports fold increase of co-immunoprecipitation in NGF-treated over untreated cells results from paper PMC4302597.

This assay addresses tubulin of PC12 cells (microtubule (MT) fraction, soluble tubulin (ST) fraction or cell lysate) (rat (endogenous in PC12)) (UniProt P68370). Description: co-IP; MT fraction of PC12 cells, untreated or treated with 100 ng/mL NGF for three days; 100 μL aliquots (~0.25–1 mg/mL) with anti-α tubulin or anti-Gβ for 1 h at 4°C, then protein A-sepharose overnight at 4°C; immunoblot for Gβ or tubulin. A general note: In western blotting, separated proteins are transferred to a membrane and probed.

Consider “βγ subunit of heterotrimeric G proteins (Gβγ), endogenous in PC12 cells (from UniProt P54311 1-340) (complex)”, for which the fold increase of co-immunoprecipitation in NGF-treated over untreated cells lay within 2 to 3 fold.
